How the values were obtained:
[1] = system: T1, LAR-7022
T1 sequence: ADDIGTSRPQE

[2] = system: T2, LAR-7047
T2 sequence: VFFRRQTA

[3] = system: T3, LAR-7048
T3 sequence: PRRICV

With Staphopain A and Staphopain B the “hydrolysis of the peptide substrate, fragments by mass spectrometry” value [1] was “Degradation of LAR-7022 (b-ADDIG-TSRPQE): 1188.56 amu produced specific fragment pick: 717.37 corresponding to TSRPQE sequence”, the “degradation of the control peptide” value [2] was “No degradation was observed in these systems” and the “degradation of the control peptide” value [3] was “No degradation was observed in these systems”.

From patent publication US8962697
